Results from patent publication US20220135640A1, “CORTISTATIN OR AN ANALOGUE THEREOF AS A PHARMACEUTICALLY ACTIVE AGENT IN LATENT FORM” (CONSEJO SUPERIOR DE INVESTIGACIONES CIENTIFICAS (CSIC), priority 2019, published 2022).
Bridge positions count the residues as written; N and C are the ends. Ends that are not written are not given here.

How the values were obtained:
[1] = cited from earlier work
[2] = system: somatostatin receptors, sstr1-sstr5; settings: cited from earlier work
sstrt2 receptor = sstrt2 receptor (Homo sapiens, UniProt P30874); settings: cited from earlier work
sstr1 = sstr1 (Homo sapiens, UniProt P30872); settings: cited from earlier work
sstr4 = sstr4 (Homo sapiens, UniProt P31391); settings: cited from earlier work
[3] = Stability of cortistatin-29, free versus in LAP-CST, at room temperature; assay type: physicochemical
Description: On the other hand, whereas the amount of recombinant cortistatin-29 decreased in a 82% after 15 minutes at room temperature, the amount of cortistatin-29 in LAP-CST remains stable for at least 7 days.

[4] = system: LAP-GS-MMP-GS-CST-29r fusion protein (SP-LAP-L1-MMP-L2-CST29r)
recombinant MMP1 = target: T1, recombinant MMP1 (Homo sapiens, UniProt P03956); assay: Treatment of LAP-CST supernatants with recombinant MMP1, Cortistatin-29 recovered; assay type: biochemical; settings: 48 h supernatants treated with recombinant MMP1; diminished from 80 ng; 12 hours later
T1 sequence (P03956 100-469): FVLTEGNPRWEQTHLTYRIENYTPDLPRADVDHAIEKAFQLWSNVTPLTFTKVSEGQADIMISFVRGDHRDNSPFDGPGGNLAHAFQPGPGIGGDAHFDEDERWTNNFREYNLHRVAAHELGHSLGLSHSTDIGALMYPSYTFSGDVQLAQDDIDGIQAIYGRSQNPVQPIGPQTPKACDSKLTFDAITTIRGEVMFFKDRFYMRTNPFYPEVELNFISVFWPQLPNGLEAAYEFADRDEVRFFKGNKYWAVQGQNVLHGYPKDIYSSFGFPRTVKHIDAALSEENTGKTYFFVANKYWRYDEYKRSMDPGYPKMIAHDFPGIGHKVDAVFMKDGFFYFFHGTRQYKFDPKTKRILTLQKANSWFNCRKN
From the text: The amount of LAP-MMP-CST-29r peptide in culture supernatants was indirectly determined by measuring the concentration of rat Cortistatin-29 by using a specific ELISA (Phoenix Pharmaceuticals).

[5] = system: dermal fibrosis induced by bleomycin; assay: Bleomycin-induced dermal sclerodermia, local treatment; assay type: in vivo, C57Bl/6 mice
Description: FIG. 2 illustrates the experiments performed wherein sclerodermia was induced by intradermal injection of bleomycin (3 times per week, during four weeks) in an area of […] in the dorsal skin of C57Bl/6 mice. Mice were locally treated around the lesion area with saline (group bleomycin), with cortistatin (group belomycin+CST, 3 time per week, 10 ng each time), with empty LAP vector (Bleomycin+LAP, once a week, 20 pg) or with LAP-CST (Bleomycin+LAP-CST, once a week, 20 pg). Naïve animals without bleomycin were used as basal control reference. After four weeks, lesioned skin area was dissected and processed for histological analysis using Mason Trichromic staining. Skin thickness (from epidermis to hypodermis) was quantified using Image J program. Fibrotic deposits in skin are stained in blue in sections. […] Skin thickness (from epidermis to hypodermis) was quantified using Image J program. […]

[6] = system: bleomycin-induced lung fibrosis; assay: Bleomycin-induced lung fibrosis, nasal inhalation (Example 3); assay type: in vivo, C57Bl/6 mice; settings: once a week, 20 pg
Description: (§1) FIG. 3 illustrates the experiments performed wherein lung fibrosis was induced by intratracheal injection of bleomycin (50 μg/kg body weight, dissolved in 50 μl of saline) in C57Bl/6 mice. Mice were treated by nasal inhalation of saline (group bleomycin+saline), cortistatin (group belomycin+CST, 3 times per week, 10 ng each time), or LAP-CST (Bleomycin+LAP-CST, once a week, 20 pg). After 18 days, lungs were dissected and processed for histological analysis using Mason Trichromic staining and Sirius Red staining. Lung fibrosis and tissue damage were quantified using Image J program and scored using an established clinical index from 0 to 4 in a blinded fashion. Mortality caused by fibrosis is shown in this figure.
as §1, with “Lung” for “FIG. 3 illustrates the experiments performed wherein lung”, “fashion.” for “fashion. Mortality caused by fibrosis is shown in this figure.”

[7] = system: liver fibrosis induced by CCl4; assay: CCl4-induced liver fibrosis; assay type: in vivo, C57Bl/6 mice; settings: systemic, once a week, 100 pg/mouse, 6 weeks
Description: FIG. 4 is a quantification of liver fibrosis and tissue damage using Image J program and scored using an established clinical ISHAK index from 0 to 4 in a blinded fashion.
Liver fibrosis was induced by intraperitoneal injection of CCl4 (3:9 in olive oil, 40 μl/mouse, every three days) in C57Bl/6 mice. Mice were treated three times a week with cortistatin (500 ng/mouse) or once a week with LAP-CST (100 pg/mouse). After 6 weeks, liver was dissected and processed for histological analysis using Mason Trichromic staining and Sirius Red staining. Liver fibrosis and tissue damage were quantified using Image J program and scored using an established clinical ISHAK index from 0 to 4 in a blinded fashion (FIG. 4).

[8] = system: bleomycin-induced lung fibrosis; assay: Bleomycin-induced lung fibrosis, comparison of LAP constructs (Example 5); assay type: in vivo, C57Bl/6 mice; settings: nasal inhalation, once a week, 20 pg, 18 days
Description: FIG. 5. Lung fibrosis and tissue damage were quantified using Image J program and scored using an established clinical index from 0 to 4 in a blinded fashion. Mortality caused by fibrosis is shown in this figure.
Lung fibrosis was induced by intratracheal injection of bleomycin (50 μg/kg body weight, dissolved in 50 μl of saline) in C57Bl/6 mice. Mice were treated once a week by nasal inhalation of 20 pg of empty LAP (A), LAP containing only cortistatin (B), LAP containing cortistatin and linkers LAP-L1L2-CST but not MMP site (C), or LAP containing cortistatin, linkers and MMP site (D). After 18 days, lungs were dissected and processed for histological analysis using Mason Trichromic staining and Sirius Red staining. Lung fibrosis and tissue damage were quantified using Image J program and scored using an established clinical index from 0 to 4 in a blinded fashion.

Chain of sstrt2 receptor (P30874 whole entry): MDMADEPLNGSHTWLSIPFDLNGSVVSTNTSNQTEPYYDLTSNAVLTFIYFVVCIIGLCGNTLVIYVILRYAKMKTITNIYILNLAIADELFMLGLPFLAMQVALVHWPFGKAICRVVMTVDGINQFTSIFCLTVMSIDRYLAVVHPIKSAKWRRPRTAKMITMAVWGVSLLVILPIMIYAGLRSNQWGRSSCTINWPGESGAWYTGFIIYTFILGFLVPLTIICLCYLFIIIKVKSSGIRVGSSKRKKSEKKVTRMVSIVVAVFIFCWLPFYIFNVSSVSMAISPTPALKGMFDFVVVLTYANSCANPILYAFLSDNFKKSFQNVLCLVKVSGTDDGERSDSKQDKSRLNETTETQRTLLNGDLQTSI
Chain of sstr1 (P30872 whole entry): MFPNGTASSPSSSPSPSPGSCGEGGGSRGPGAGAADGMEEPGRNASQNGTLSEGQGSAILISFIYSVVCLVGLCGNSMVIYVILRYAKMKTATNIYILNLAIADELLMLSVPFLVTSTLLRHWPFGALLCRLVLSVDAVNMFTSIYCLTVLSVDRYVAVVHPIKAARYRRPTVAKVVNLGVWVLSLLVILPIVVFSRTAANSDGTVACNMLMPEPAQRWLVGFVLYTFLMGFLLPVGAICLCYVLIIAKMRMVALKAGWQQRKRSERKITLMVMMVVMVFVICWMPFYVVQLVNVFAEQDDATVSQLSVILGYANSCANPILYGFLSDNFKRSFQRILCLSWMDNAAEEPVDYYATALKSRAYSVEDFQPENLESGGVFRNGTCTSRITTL
Chain of sstr4 (P31391 whole entry): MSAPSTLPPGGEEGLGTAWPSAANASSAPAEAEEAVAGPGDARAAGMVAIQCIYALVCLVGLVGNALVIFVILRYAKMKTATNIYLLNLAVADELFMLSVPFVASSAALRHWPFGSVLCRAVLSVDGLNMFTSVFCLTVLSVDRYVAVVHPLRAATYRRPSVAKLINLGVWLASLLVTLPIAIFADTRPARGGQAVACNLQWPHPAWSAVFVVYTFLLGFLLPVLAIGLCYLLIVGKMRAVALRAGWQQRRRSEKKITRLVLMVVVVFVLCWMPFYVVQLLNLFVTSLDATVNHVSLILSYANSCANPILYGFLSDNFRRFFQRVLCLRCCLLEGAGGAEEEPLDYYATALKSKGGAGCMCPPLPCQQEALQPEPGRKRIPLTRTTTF

Question: For cortistatin, which blood half-life [1] is on record?
Answer: Its blood half-life is “a few minutes”.

Question: What about the “affinity to somatostatin receptors” value [2] of the same molecule?
Answer: The value was “nanomolar affinity”.

Question: What does the source list for `C[C@@H](O)[C@@H]1NC(=O)[C@H](CCCCN)NC(=O)[C@@H](Cc2c[nH]c3ccccc23)NC(=O)[C@H](Cc2ccccc2)NC(=O)[C@@H](NC(=O)[C@H](N)Cc2ccccc2)CSSC[C@@H](C(=O)N[C@H](CO)[C@@H](C)O)NC1=O` [octreotide]?
Answer: binding to the sstrt2 receptor (sstrt2 receptor): keeps binding; affinity to the sstr1 receptor (sstr1): completely loses its affinity; affinity to the sstr4 receptor (sstr4): completely loses its affinity

Question: For “cortistatin-29: rat sequence of cortistatin, 29 amino acids (GenBank: EDL81150.1) (QERPPLQQPPHRDKKPCKNFFWKTFSSCK-OH; disulfide 17-28 (inferred); ends not checked; UniProt Q62949 84-112, looked up) [reference compound]”, which “decrease of the amount of cortistatin-29” value ([3]; after 15 minutes at room temperature) is on record?
Answer: The value was 82%.

Question: For recombinant MMP1, which “amount of Cortistatin-29 (indirectly measuring LAP-CST) recovered from the culture, 12 hours after MMP1 treatment” value [4] is on record?
Answer: Its value is “diminished from 80 ng to 20 ng, 12 hours later”.

Question: And the “amount of Cortistatin-29 (indirectly measuring LAP-CST) recovered from the culture, before MMP1 treatment” value [4]?
Answer: The value was “diminished from 80 ng to 20 ng, 12 hours later”.

B1: LAP-CST: fusion protein of LAP of TGFβ-1 (Met1-Ser273), MMP cleavage site PLGLWA flanked by GGGGS linkers, and rat cortistatin-29 (protein)
chain: MPPSGLRLLPLLLPLLWLLVLTPGRPAAGLSTCKTIDMELVKRKRIEAIRGQILSKLRLASPPSQGEVPPGPLPEAVLALYNSTRDRVAGESAEPEPEPEADYYAKEVTRVLMVETHNEIYDKFKQSTHSIYMFFNTSELREAVPEPVLLSRAELRLLRLKLKVEQHVELYQKYSNNSWRYLSNRLLAPSDSPEWLSFDVTGVVRQWLSRGGEIEGFRLSAHCSCDSRDNTLQVDINGFTTGRRGDLATIHGMNRPFLLLMATPLERAQHLQSEFGGGGSPLGLWAGGGGSAAAQERPPLQQPPHRDKKPCKNFFWKTFSSCK
modifications: Fusion peptide
Question: With B1 as the molecule, how does the “amount of Cortistatin-29 (indirectly measuring LAP-CST) recovered from the culture” value (recombinant MMP1) read?
Answer: Its value is 20 ng.

Question: And the “time the amount of cortistatin-29 remains stable” value ([3]; cortistatin-29 in LAP-CST)?
Answer: The value was “at least 7 days”.

Question: What about the “dermal fibrosis (skin thickness, Mason Trichromic staining)” value ([5]; local, once a week, 20 pg, four weeks, compared with LAP alone, as effective as cortistatin 10 ng 3 times per week) of the same molecule?
Answer: Its value is “effective in reducing dermal fibrosis”.

Question: And the “effectiveness of a single injection relative to recombinant cortistatin” value ([5]; weekly 20 pg versus cortistatin 3 times per week at 500-fold higher concentration)?
Answer: The value was “at least 1,500 times”.

Question: And the “lung fibrosis and damage” value ([6]; 18 days, as effective as cortistatin 3 times per week at 500-fold higher dose)?
Answer: The value was “significantly reduced lung fibrosis and damage”.

Question: And the survival ([6]; bleomycin alone causes 80% of mortality)?
Answer: The survival was “dramatically increased survival”.

Question: And the survival ([7]; mortality of 50% in untreated mice)?
Answer: The survival was 100%.

Question: What about the liver fibrotic area ([7]; similar to cortistatin 500 ng/mouse three times a week) of the same molecule?
Answer: Its liver fibrotic area is “significantly reduced liver fibrotic area”.

Question: What about the “protection versus bleomycin-induced lung fibrosis and mortality” value [8] of the same molecule?
Answer: The value was “protected”.
